Source: article PMC12287439 (Nature Communications, 2025)
Residue numbers refer to the chain shown, from its start. Numbers in names are those of the source. Each block holds one molecule with its values, some of them ahead of it.

Key:
LYCHOS [1] = molecular target: T1, LYCHOS (Homo sapiens, UniProt Q7Z3F1, Y57A); experiment: cryo-EM structure; type: binding
T1 sequence (Q7Z3F1 1-870 Y57A): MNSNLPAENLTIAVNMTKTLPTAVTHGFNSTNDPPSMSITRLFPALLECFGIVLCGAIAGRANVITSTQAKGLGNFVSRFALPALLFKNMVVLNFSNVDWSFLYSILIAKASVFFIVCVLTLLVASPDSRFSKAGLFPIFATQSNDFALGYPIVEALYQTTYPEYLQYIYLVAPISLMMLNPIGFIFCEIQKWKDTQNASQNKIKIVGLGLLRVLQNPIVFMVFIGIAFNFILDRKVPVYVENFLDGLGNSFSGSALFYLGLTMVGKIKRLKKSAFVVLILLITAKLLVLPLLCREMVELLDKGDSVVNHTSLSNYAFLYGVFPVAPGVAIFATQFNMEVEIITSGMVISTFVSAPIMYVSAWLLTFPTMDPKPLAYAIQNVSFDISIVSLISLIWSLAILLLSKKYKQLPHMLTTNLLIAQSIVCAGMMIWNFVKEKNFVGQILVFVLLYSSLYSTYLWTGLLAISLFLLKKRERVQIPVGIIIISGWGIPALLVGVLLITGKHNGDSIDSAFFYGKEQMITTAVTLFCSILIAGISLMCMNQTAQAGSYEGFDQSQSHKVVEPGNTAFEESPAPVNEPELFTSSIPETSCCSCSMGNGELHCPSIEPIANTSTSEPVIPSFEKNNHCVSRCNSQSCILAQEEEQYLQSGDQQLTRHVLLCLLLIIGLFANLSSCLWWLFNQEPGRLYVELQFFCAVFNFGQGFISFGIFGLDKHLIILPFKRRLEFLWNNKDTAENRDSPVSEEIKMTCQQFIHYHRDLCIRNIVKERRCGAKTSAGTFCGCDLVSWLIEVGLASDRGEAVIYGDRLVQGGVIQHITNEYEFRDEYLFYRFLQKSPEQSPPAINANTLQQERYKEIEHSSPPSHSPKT

LYCHOS [2] = molecular target: LYCHOS (Homo sapiens, UniProt Q7Z3F1); experiment: BRET recruitment of GATOR1; type: cell-based
Sequence of LYCHOS (Homo sapiens, UniProt Q7Z3F1) (Q7Z3F1 whole entry): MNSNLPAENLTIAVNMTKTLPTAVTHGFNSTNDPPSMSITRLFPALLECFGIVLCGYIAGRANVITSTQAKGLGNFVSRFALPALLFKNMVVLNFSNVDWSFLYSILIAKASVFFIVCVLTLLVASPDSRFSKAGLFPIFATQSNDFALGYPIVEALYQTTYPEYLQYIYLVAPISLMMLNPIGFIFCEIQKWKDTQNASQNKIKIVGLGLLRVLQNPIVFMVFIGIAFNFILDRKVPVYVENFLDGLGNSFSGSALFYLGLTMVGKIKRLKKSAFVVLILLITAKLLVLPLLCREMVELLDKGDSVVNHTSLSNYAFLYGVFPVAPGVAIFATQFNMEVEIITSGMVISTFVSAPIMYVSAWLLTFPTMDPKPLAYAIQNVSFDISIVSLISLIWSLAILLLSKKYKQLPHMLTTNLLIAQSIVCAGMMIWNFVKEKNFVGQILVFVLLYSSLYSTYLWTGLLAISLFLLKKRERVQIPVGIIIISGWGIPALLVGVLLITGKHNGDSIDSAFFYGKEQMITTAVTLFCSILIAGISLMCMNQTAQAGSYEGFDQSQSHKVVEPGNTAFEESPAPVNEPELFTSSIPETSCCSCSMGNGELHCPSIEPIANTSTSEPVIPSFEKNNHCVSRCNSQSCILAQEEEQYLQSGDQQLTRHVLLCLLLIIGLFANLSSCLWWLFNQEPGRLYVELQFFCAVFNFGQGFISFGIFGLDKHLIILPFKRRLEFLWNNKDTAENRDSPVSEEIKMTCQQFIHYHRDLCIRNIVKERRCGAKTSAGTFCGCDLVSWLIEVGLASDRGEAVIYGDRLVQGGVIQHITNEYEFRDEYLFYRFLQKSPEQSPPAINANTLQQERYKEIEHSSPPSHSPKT
Sequence of LYCHOS (Homo sapiens, UniProt Q7Z3F1) (Q8WTW4 whole entry partner): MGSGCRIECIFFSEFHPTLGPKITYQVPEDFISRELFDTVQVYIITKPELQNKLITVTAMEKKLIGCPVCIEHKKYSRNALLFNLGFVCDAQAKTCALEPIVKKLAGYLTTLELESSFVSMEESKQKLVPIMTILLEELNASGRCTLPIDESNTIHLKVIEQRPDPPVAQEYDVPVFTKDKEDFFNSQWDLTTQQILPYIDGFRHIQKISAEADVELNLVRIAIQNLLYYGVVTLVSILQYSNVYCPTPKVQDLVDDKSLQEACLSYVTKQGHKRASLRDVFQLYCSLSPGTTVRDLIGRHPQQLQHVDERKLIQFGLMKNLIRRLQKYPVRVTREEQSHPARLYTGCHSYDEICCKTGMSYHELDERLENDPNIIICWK
Sequence of LYCHOS (Homo sapiens, UniProt Q7Z3F1) (Q12980 whole entry partner): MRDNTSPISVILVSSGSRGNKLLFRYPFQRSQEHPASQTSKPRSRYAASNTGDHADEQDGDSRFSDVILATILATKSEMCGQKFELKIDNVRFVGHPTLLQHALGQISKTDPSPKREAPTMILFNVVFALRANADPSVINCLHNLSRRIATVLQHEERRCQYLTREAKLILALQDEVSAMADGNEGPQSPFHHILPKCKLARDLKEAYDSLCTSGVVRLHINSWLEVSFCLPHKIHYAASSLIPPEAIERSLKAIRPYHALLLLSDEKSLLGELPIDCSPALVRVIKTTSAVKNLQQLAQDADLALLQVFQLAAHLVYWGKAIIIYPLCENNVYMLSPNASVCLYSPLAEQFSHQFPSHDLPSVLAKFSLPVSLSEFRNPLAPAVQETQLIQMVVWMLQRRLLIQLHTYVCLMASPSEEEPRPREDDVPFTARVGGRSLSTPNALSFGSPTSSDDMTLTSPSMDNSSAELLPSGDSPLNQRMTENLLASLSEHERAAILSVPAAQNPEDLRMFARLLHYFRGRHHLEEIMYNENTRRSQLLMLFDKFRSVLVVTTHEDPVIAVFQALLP
Sequence of LYCHOS (Homo sapiens, UniProt Q7Z3F1) (O75140 whole entry partner): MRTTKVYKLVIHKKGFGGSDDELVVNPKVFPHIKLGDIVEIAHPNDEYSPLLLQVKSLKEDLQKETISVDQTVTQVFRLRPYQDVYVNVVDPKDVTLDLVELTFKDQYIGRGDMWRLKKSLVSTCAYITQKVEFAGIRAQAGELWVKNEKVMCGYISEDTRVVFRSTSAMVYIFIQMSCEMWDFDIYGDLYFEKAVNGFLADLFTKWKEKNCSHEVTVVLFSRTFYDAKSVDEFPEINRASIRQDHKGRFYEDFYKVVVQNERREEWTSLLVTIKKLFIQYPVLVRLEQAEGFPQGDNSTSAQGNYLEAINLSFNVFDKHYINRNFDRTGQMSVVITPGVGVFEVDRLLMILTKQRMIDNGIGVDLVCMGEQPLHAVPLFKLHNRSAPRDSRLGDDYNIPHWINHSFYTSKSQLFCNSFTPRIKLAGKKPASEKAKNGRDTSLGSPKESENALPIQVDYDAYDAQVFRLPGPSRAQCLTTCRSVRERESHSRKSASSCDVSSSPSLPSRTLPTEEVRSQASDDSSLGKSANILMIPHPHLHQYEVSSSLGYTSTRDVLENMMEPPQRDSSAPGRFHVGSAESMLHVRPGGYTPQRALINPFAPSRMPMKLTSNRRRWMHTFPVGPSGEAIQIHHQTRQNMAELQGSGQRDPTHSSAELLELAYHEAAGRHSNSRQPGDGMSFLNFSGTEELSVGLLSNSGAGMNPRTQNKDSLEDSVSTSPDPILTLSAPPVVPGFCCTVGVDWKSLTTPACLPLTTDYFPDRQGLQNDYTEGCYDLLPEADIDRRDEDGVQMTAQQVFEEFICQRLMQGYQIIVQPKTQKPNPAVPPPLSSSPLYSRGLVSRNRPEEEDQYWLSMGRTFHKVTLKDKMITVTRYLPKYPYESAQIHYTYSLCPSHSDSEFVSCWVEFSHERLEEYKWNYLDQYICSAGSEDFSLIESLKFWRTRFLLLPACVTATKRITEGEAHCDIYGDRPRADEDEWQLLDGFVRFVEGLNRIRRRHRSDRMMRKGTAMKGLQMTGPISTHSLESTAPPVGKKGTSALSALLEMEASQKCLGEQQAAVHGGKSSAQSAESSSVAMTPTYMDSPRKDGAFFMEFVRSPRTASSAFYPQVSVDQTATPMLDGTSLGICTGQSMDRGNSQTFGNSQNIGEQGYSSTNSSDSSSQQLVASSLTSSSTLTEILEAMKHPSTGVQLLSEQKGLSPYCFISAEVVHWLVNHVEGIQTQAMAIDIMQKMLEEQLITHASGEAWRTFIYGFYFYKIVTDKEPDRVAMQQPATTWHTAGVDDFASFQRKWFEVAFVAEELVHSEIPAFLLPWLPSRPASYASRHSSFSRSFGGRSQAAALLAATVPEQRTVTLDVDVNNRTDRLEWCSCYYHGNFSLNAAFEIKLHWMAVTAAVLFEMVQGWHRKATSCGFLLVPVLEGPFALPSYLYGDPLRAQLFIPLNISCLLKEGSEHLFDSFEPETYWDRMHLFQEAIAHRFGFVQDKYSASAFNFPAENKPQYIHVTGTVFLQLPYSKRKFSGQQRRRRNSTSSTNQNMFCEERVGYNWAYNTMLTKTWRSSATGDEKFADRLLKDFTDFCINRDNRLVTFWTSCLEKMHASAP

cryo-EM structure = molecular target: the molecule itself; experiment: cryo-EM structure

Molecule: CC(C)CCC[C@@H](C)[C@H]1CC[C@H]2[C@@H]3CC=C4C[C@@H](OC(=O)CCC(=O)O)CC[C@]4(C)[C@H]3CC[C@]12C [CHS, cholesteryl hemisuccinate]
- cryo-EM structure (3.21 Å, contracted state) (LYCHOS [1]): We found there exist two CHS molecules in the CBC, with which GLD is locked in contracted state

- EC50 (LYCHOS [2]): 165 nM
Molecule: CC(C)CCC[C@@H](C)[C@H]1CC[C@H]2[C@@H]3CC=C4C[C@@H](O)CC[C@]4(C)[C@H]3CC[C@]12C [cholesterol]

B1: human LYCHOS, wild type (lysosomal cholesterol signaling protein) (natural protein, UniProt Q7Z3F1 1-870, looked up)
chain: T1 sequence (Q7Z3F1 1-870 Y57A) with A57Y
- stoichiometry N (cryo-EM structure): 2

B2: human LYCHOS Y57A (natural protein, UniProt Q7Z3F1 1-870, looked up)
chain: T1 sequence (Q7Z3F1 1-870 Y57A)
- stoichiometry N (cryo-EM structure): 2

B3: LYCHOSPLD (permease-like domain of human LYCHOS) (domain or fragment)
chain: MNSNLPAENLTIAVNMTKTLPTAVTHGFNSTNDPPSMSITRLFPALLECFGIVLCGYIAGRANVITSTQAKGLGNFVSRFALPALLFKNMVVLNFSNVDWSFLYSILIAKASVFFIVCVLTLLVASPDSRFSKAGLFPIFATQSNDFALGYPIVEALYQTTYPEYLQYIYLVAPISLMMLNPIGFIFCEIQKWKDTQNASQNKIKIVGLGLLRVLQNPIVFMVFIGIAFNFILDRKVPVYVENFLDGLGNSFSGSALFYLGLTMVGKIKRLKKSAFVVLILLITAKLLVLPLLCREMVELLDKGDSVVNHTSLSNYAFLYGVFPVAPGVAIFATQFNMEVEIITSGMVISTFVSAPIMYVSAWLLTFPTM
- stoichiometry N (cryo-EM structure): 2
